Experiment: soluble on expression in E. coli; label from the status in PepcDB or PDB records

| Sequence | soluble on expression in E. coli |
| --- | --- |
| MSAYRHAVERIDSSDLACGVVLHSAPGYPAFPVRLATEIFQRALARLPGDGPVTLWDPCCGSGYLLTVLGLLHRRSLRQVIASDVDPAPLELAAKNLALLSPAGLTARELERREQSERFGKPSYLEAAQAARRLRERLTAEGGALPCAIRTADVFDPRALSAVLAGSAPDVVLTDLPYGERTHWEGQVPAQPVAGLLRSLASALPAHAVIAVTDRSRKIPVAPVKALERLKIGTRSAVLVRAADVLEAGP | soluble |
| MSDEISILIQDRKTGQRRNLTLNINITGNIEDLTKDVEKLTEIPSDELEVVFCGKKLSKSTIMRDLSLTPATQIMLLRPKFNSHNENGATTAKITTDSSILGSFYVWCKNCDDVKRGKLRVYCQKCSSTSVLVKSEPQNWSDVLKSKRIPAVCEECCTPGLFAEFKFKCLACNDPAAALTHVRGNWQMTECCVCDGKEKVIFDLGCNHITCQFCFRDYLLSQLERFGFVNQPPHGFTIFCPYPGCNRVVQDVHHFHIMGQTSYSEYQRKATERLIAVDDKGVTCPNVSCGQSFFWEPYDDDGRSQCPDCFFSFCRKCFERNCVCQSEDDLTRTTIDATTRRCPKCHVATERNGGCAHIHCTSCGMDWCFKCKTEWKEECQWDHWFN | not soluble |
| MSDIAPAAHSPYIPPTPEVGLPLWLLAELTYRCPLQCPYCSNPLDFARQGQELTTEQWFKVMQEAREMGAAQIGFSGGEPLVRQDLAELIAEARRLGFYTNLITSGIGLTEEKIIAFKKAGLDHIQISFQASDEQVNNMLAGSKKAFAQKLEMAKAVKKHGYPMVLNFVTHRHNIDRIDKIIELCLALEADFVELATCQFYGWAHLNRVGLLPTKDQLVRAEAVTNEYRDQLAAQDHPCKLIFVTPDYYEERPKACMNGWGNIFLTVTPDGTALPCHGARQMPIQFPNVREHSMQHIWYDSFGFNRFRGYDWMPEPCRSCDEKEKDFGGCRCQAFMLTGDAANADPVCSKSYHHGIITQARDESETATQTIEELAFRNDRNSRLIAKSS | not soluble |
| MSDISIEMIKRIVEEVVKKFLSKKILVVFTGGKVNFDISLDELKKIKENSMVEYTLVFSRAASQIFNKKMISDQLESVEVIEEGEAINARECVQKHNMVIFATLTRNTASKISHLILDTLPTQIAINCVLSDVPIVAVRDAADLNVETWRELGFSNFPPALKNSYDKIFKDIESYGIELCNSFELAKKVLGYLNSNSFSIAEKINKEEKSKRENSYYNGAKNIRLEKKIITREDIIGLKGKIDTIEIAKDSIITPLAMDFIRDNQLKVIKT | not soluble |
| MSDPKPTRSQGDLAEMLEMLLDKGVVINADIAVSVGDTELLGIQLRAAVASFETAAQYGLEFPTGTDMKRVETAAGVSSDASDANSETQPETEPARETTDEHSAVSSPSSREE | not soluble |
| MSDVRPPLPPFTAETAAQKVRAAEDGWNSRDPQRVSLAYSPDSVWRNRSTFVRGRERIVEFLSGKWQREQEYRLIKELWAFTGNRIAVRFAYEWHDDSGNWFRSYGNENWAFDEQGLMYERHASINDLPIREDQRLFRWLLGRRPDNHPSLGELGLLEHHHHHH | soluble |
| MSDYLSVSTLTKYLKLKFDKDPYLERVYLTGQVSNFRRRPNHQYFSLKDDKSVIQATMWSGHFKKLGFELEEGMKVNVVGRVQLYEPSGSYSIIVEKAEPDGIGALAIQFEQLKKKLSQAGYFDDRHKQLIPQFVRKIGVVTSPSGAVIRDIITTVSRRFPGVEILLFPTKVQGEGAAQEIAQTIALANEKKDLDLLIVGRGGGSIEDLWAFNEECVVEAIFESRLPVISSVGHETDTTLADFVADRRAATPTAAAELATPVTKIDILSWITERENRMYQSSLRLIRTKEERLQKSKQSVIFRQPERLYDGFLQKLDNLNQQLTYSMRDKLQTVRQKQGLLHQKLQGIDLKQRIHIYQERVVQSRRLLSSTMTSQYDSKLARFEKAQDALISLDSSRIVARGYAIIEKNHTLVSTTNGINEGDHLQVKMQDGLLEVEVKDVRQENI | not soluble |
| MSEAGSTVPFDFSSYGGEIDDLATRGLADAAGAEGIRTAMARVTGRAEEVQASRLSANEQNLIACGPGCADCCRVNVTVLLPEAIAIAAYLEEIGKGDETNAITMRVADTAARVRWMEDDERIRAGVACPFLDGRGWCAIYPVRPLTCRALSSTDPEQCRRALAAHCSDEEETIVVNIFQKFLMEGTFQSLARAMERAGLDTTGRELCRSVTRCLLDPRLADDFLAGKRIKFPESLEHHHHHH | soluble |
| MSEEDAEKLFLQEKPTRALLFIGSTGKTYASVISKEIDSTFAHTTRILSKMEQSGLIRFTFEGRIKFVELTKYGEEVEAALKDFRNIISEESPLRKEYLTAEEAGKVDKVRESEGKEYREHEEWEEENESEKDLDPLSAEILEKVRNLRNKIEGIYREAAETGQSKEMLSRKLGPNSRDIKKLYNQIENAETPVDETVVLALEETEGLLESYLKGSKPENV | not soluble |
| MSEEIKKIEEVAEQDKAPKVPTTEPPVDVPAPVTEEAPKVEEAVAEIAAPAAAEGETATAAAAAPEEKKKSGGVARRFTFNKRWGKHRDAEASTPKEPEAPKDPKEDVLGWIAQQIPQAVHKANYQVIDWVQKTAIPEEGERKTIPGKDQATTRNQFIGFFKDGDVLAKLANALEPGAVEVAAAEENADAAAQKEVQKKNIDAFGAWAQKTLGTEAAPVTNEDLLEKGKAGYTAVFQTLWQLGVQAKEKFDKEGFNVDTIVQLANSVVKSGLLTTILGFFRRNRQAAAAVEEPKDETAAAEGAGEAKEEGATGEVADTADEPVAVKQETSAPAAVAAN | not soluble |
| MSEFDFDVVVVGAGAVGLACGYALSRRGLVVAVLEEQGRIGEGVSSRNSEVIHGGLYYPTGSLKAKLCVQGRRALYAFCDAHKVPYKKCGKLVVATSEDEIARLDTIWEQALANDVEGMERLTGAQARALEPGLNAHAALLSPESGVFASHDYMLALQGEIEAAGGAVVLSTPFEGAEPLAGGGFRVRAGGAEPTDLTCRLLVTAPGLSSQAVAGRIEGYPAEQIPKAHFGKGIYFRLSGKAPFQRLIYPPPIHGALGTHYRNDMGGQAVFGPDLEYVAAPDYSVDPAKADAFAAYIRKFWPDLPADRLVPDYAGVRPKLHGPGEPQPDFQLRGVEDHGLAGLMALFGIESPGLTSSLAIGETVAERLCGASLEHHHHHH | soluble |
| MSEKPLTKTDYLMRLRRCQTIDTLERVIEKNKYELSDNELAELTMNKLYDKIPSSVWKFIRLAVFYSAADHR | not soluble |
| MSELLAGTKLINQDSEELDAGEHLKGKVVGLYFSASWCPPCRQFTPKLTRFFDEIRKKHPEFEVVFVSRDREDGDLREYFLEHMGAWTAIPFGTPRIQELLEQYEVKTIPSMRIVKPNGDVVVQDARTEIQDKGNDPEALWEEWLAFYD | not soluble |
| MSEMTPREIVSELDQHIIGQADAKRAVAIALRNRWRRMQLQEPLRHEVTPKNILMIGPTGVGKTEIARRLAKLANAPFIKVEATKFTEVGYVGKEVDSIIRDLTDSAGGAIDAVEQNGIVFIDEIDKICKKGEYSGADVSREGVQRDLLPLVEGSTVSTKHGMVKTDHILFIASGAFQVARPSDLIPELQGRLPIRVELTALSAADFERILTEPHASLTEQYKALMATEGVNIAFTTDAVKKIAEAAFRVNEKTENIGARRLHTVMERLMDKISFSASDMNGQTVNIDAAYVADALGEVVENEDLSRFIL | soluble |
| MSEMTPREIVSELDQHIIGQADAKRAVAIALRNRWRRMQLQEPLRHEVTPKNILMIGPTGVGKTEIARRLAKLANAPFIKVEATKFTEVGYVGKEVDSIIRDLTDSAMKLVRQQEIAKNRARAEDVAEERILDALLPPAKNQWGEVENHDSHSSTRQAFRKKLREGQLDDKEIEIDVSAGVSMGVEIMAPPGMEEMTNQLQSLFQNLGSDKTKKRKMKIKDALKALIDDEAAKLINPEELKQKAIDAVEQNGIVFIDEIDKICKKGEYSGADVSREGVQRDLLPLVEGSTVSTKHGMVKTDHILFIASGAFQVARPSDLIPELQGRLPIRVELTALSAADFERILTEPHASLTEQYKALMATEGVNIAFTTDAVKKIAEAAFRVNEKTENIGARRLHTVMERLMDKISFSASDMNGQTVNIDAAYVADALGEVVENEDLSRFIL | soluble |
| MSERPDLVDPLPEDEPLPGENIPDTPEGDDPLDPDTQNEVEDPRR | not soluble |
| MSERRIDVNRSNYSVIDNEFGNMRDRFEQEMRRVEEEMKRLRSEFEGYRPNGGPPAAISNQPYNAYSNTSSHHETSNRTGGFGSPLPPPSFHGPSDLMAHRPTYDPYLDNLKSPLIKDESDGKTLRLRFDVANYKPEEVTVKTIDNRLLVHAKHEEKTPQRTVFREYNQEFLLPRGTNPEQISSTLSTDGVLTVEAPLPQLAIQQ | not soluble |
| MSESAFKDCFSTDVSADTRLFHFLARDYIVQEGQQPSWLFYLTRGRARLYATLANGRVSLIDFFAAPCFIGEIELIDKDHEPRAVQAIEECWCLALPMKHYRPLLLNDTLFLRKLCVTLSHKNYRNIVSLTQNQSFPLVNRLAAFILLSQEGDLYHEKHTQAAEYLGVSYRHLLYVLAQFIHDGLLIKRKDI | not soluble |
| MSESITITANSIDNPETDVRRNERFHLVPRKRLEALVTTSGLIGAMIGFYDGVKISSLRYLTENAHRMPKTVGGWYFYHKKKNYVMIVAGVKKAITTSFKYGAAVGGFFGLEYLLDISRGNTIDFFNTTTAAFLTSTFYAKYNKLSSMQTRKMIFKGTALGLTLGLIQDYLIHARKGRVWYLDRYTQQKLV | not soluble |
| MSEWRGFNRKGNTMKIRPGRHNAPDFPHGAAVTIGNFDGVHLGHKHILQKLRLEADARGLPVVAVVFEPQPKEFFALRTGKTPPCRISPLRTKLELLEGTGCVDAAWVLRFDRNFSEISAQAFIDRLLRQTLNTRYLLVGDDFRFGAGREGCFELLAQQPDMQTERTPSVIVEDIRTSSTAVRQALSDGNLAYAKKLLGHDYVLGGRVVHGRKLGRTLNAPTANIRLPGHRYALGGVFVVEADGAFGTRRGVASFGFNPTVDGGCSQKLEVHLFDFQGDLYGQRLNVRFLHKLRDEEKFDGMEELKRRIEADMEAAKCW | not soluble |
| MSEYRVNHEPVFMLASSPWRESSLWVEAFSRRYGRVALLARSARKRQSELRGVLVPFVPVSVSWYGSQELKTLHRAEWVGGWRQPQGRALFGGLYVNELVLKLTAREDPVPELYDALAEVMEAVCCKAAYIDDLRRFEWRLLNLLGVAPDLNRDGDGGTIAAGGTYLVRPETAVFPVGKGFAVPPHAAGVVAPGQSLIDLREGSFRTAESLQQALKITRLFIRHLLPEGLKSRQVLEQIRQFDRKETARETVPTSDGTASNAV | not soluble |
| MSFKDFSFEFNGEPIHFSITSHPDKDLVHFNSTGRIGQVIEVIQPPEILSSQLSDQQRVEYELKSLLGNPELPGVELFIRRFVIHFAGTNQRKSALFVFGIDLDGIPNECIAAALQALEENH | not soluble |

From the DeepSol protein solubility set
